Source: US20210015937A1 (CRESCENDO BIOLOGICS, published 2021)

Experiments:
[1] = target: T1, recombinant human PD-1 Fc chimera (human, UniProt Q15116 25-167); experiment: Octet bio-layer interferometry; VH (100 nM) first bound to immobilised LAG3-Fc, then PD-1-Fc added
T1 construct: Bought Fc chimera; also called human PD-1 (R&D systems cat no. 1086-PD); PD1 antigen
Method: Recombinant LAGS-Fc (10 μg/ml) was immobilised by standard amine coupling to amine reactive biosensors in 10 mM sodium acetate at pH6. The binding steps were performed in 0.1% BSA 0.02% Tween20 in PBS. 100 nM of Humabody® were used in the first binding step, followed by binding of human PD1-Fc at 5 μg/ml. The contact time for association and dissociation was 200 seconds.

[2] = target: T2, Rhesus monkey LAG-3 (used as cynomolgus LAG-3) (Rhesus monkey (called cynomolgus in the …)); experiment: ELISA, coated antigen, VH at 10 µg/ml, anti-HIS HRP
T2 construct: extracellular domain
Method: (§1) To screen specificity by ELISA, antigens were coated at 1-5 ug/ml and blocked with Marvel milk powder. VH were added at 10 μg/ml and incubated for 1 hour. After washing, HRP-conjugated anti-HIS antibody (Miltenyi cat no. 130-092-785) was added. TMB substrate and acidic solution were used to develop colorimetric signal.

[3] = target: T3, human LAG-3 domains 1-2-Fc (human, UniProt P18627 23-261, limits assumed); experiment: as above
T3 construct: Domains were identified as per Huard et al 1997 PNAS 94:5744-9; also called truncated LAG-3
T3 sequence: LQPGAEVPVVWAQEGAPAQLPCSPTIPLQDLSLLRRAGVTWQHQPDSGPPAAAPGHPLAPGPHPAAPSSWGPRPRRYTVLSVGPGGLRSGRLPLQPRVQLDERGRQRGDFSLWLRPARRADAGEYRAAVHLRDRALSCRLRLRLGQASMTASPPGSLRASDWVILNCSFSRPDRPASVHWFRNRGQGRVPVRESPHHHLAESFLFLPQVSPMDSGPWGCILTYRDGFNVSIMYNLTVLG
Method: as §1

[4] = target: T4, recombinant human LAG-3-Fc (human, UniProt P18627 23-450); experiment: as above
T4 construct: also called human LAG-3 (R&D Systems cat no. 2319-L3); LAG3 antigen
T4 sequence: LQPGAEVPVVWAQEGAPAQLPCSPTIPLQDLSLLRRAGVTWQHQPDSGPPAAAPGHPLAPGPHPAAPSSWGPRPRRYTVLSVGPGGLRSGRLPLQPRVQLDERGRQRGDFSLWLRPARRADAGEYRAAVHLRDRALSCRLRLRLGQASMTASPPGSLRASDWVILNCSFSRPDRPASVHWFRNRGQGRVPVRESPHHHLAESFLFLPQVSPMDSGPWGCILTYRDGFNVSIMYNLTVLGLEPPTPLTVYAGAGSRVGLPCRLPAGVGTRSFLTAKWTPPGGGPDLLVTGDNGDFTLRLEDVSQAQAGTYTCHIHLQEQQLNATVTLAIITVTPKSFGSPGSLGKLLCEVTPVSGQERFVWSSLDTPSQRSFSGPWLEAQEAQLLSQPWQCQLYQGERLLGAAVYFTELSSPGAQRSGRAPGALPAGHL
Method: as §1

CD4 = target: T5, CD4 (UniProt P01730 26-390); experiment: ELISA, coated antigen, anti-HIS HRP detection
T5 construct: also called CD4 (R&D Biotechne 514-CD)
Method: as §1

mouse LAG-3 = target: T6, mouse LAG-3 (mouse, UniProt Q61790 24-442); experiment: ELISA, coated antigen, anti-HIS HRP detection
T6 construct: The construct is not described; also called mouse LAG-3 (Sino Biological cat no 53069-M02H); Mouse LAG3 (R&D Biotechne cat 3328-L3)
T6 sequence (looked up): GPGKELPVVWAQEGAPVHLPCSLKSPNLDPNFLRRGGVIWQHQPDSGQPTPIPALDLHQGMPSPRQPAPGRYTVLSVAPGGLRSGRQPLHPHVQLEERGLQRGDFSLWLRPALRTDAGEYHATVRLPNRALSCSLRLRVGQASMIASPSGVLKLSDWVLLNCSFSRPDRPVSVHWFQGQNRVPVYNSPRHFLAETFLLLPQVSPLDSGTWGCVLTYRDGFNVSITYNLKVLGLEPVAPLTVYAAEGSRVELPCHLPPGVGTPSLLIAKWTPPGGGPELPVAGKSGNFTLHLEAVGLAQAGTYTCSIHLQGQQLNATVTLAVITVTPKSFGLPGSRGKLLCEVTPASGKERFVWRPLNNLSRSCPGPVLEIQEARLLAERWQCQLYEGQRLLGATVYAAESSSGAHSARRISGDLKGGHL
Method: as §1

[5] = target: T4, recombinant human LAG-3-Fc; experiment: BLI (Octet); human LAG-3-Fc captured on protein G biosensors, 1:1 fit
[6] = target: T4, recombinant human LAG-3-Fc; experiment: competition ELISA; LAG-3-Fc pre-incubated with VH, binding to coated LSECtin
Source text: The plate was blocked with 3% Marvel skimmed milk powder in PBS. […] Wash steps were done 3 times with PBS 0.05% Tween. Colour was developed using TMB and 0.5M sulphuric acid solution.

T1 sequence (Q15116 25-167 limits assumed, change not shown): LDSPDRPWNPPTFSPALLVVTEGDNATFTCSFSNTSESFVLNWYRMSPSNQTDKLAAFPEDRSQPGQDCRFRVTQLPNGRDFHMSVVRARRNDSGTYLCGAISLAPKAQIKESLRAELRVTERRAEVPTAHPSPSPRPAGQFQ

- binding result [1]: no binding
- ELISA signal over background [2]: > 10 fold over background
- ELISA signal over background [3]: > 10 fold over background
- ELISA signal over background [4]: > 10 fold over background
- binding result (CD4): no binding (tested: 10 µg/ml VH)
- binding result (mouse LAG-3): no binding (tested: 10 µg/ml VH)
- Kd [5]: 0.417 nM
- koff [5]: 0.00047 s⁻¹
- kon [5]: 1.13e+06 M⁻¹ s⁻¹
- IC50 [6]: 55 nM
B1: VH1.1-6GS-VH1.1-His6 (VHH)
chain: EVQLVESGGGVVRPGGSLRLSCSASGFTFDDYGMSWVRQAPGKGLEWVSGIHWNGGNSGYADSVKGRFTISRDNAKNSLYLQMNSLRAEDTALYYCARIPREDCSSASCYTDAIDFWGPGTMVTVSSGGGGSGGGGSGGGGSGGGGSGGGGSGGGGSEVQLVESGGGVVRPGGSLRLSCSASGFTFDDYGMSWVRQAPGKGLEWVSGIHWNGGNSGYADSVKGRFTISRDNAKNSLYLQMNSLRAEDTALYYCARIPREDCSSASCYTDAIDFWGPGTMVTVSSAAAHHHHHH
notes: Tandem fusion of two VH 1.1, bivalent for LAG-3; The entry includes the C-terminal AAA-His6; also called 1.1-6GS-1.1; bivalent 1.1-6GS-1.1
